# Measured values as given in patent US20070172423A1, “Composition and method for modulating vasculogenesis for angiogenesis” (priority 1998, published 2007).
# Legend:
# [1] = test system: ischemic gastrocnemius muscle; experiment: Hind limb ischemia mouse model (femoral artery ligation); format: in vivo
# Description: To further verify the angio/arteriogenic activity of PDGF-CC in vivo, the effect of PDGF-CC in an established mouse model of hind limb ischemia is investigated (Luttun et al., Nat Med, 2002 1:1). PDGFR-α expression was quantified by RNAse protection analysis in the gastrocnemius muscle, which becomes highly ischemic after ligation of the femoral artery (Deindl et al., Circ Res, 2001 89:779-86; Couffinhal et al., American Journal of Pathology, 1998 152:1667-1679). Two days after femoral artery ligation, when a fraction of myocytes died due to ischemic necrosis, PDGFR-α transcript levels decreased to 76% of those found in normal muscles (FIG. 37a). […] Revascularization of the ischemic gastrocnemius muscle, which only occurred in those regions where regenerating muscle replaced the necrotic avascular muscle, was scored after continuous delivery, by osmotic minipump, of 4.5 μg PDGF-CC per day for one week after femoral artery ligation. […] PDGF-CC also enlarged the second-generation collateral side branches in the adductor muscle ([…] after saline versus […] after PDGF-CC; N=10; P=0.05). […] Thus, PDGF-CC stimulates revascularization in mouse models of both heart and limb ischemia.
# [2] = test system: endothelial progenitor cells (EPCs); experiment: EPC mobilization assay; format: in vivo, mice
# Method: For EPC mobilization assay, mice were treated with PDGF-CC protein (4.5 μg/day) immediately after femoral artery ligation using subcutaneously implanted osmotic minipumps (Alzet, type 2001). After two or five days, mice were sacrificed and spleens harvested for EPC analysis using procedures described previously (Asahara et al., Circ Res, 1999 85:221-8; Dimmeler et al., J. Clin. Invest., 2001 108:391-397). Spleens were mechanically minced using syringe plungers and laid over Ficoll to isolate splenocytes. Splenocytes were seeded into fibronectin-coated 24-well plates in 0.5 ml EBM medium. After three weeks of culturing, adherent cells were stained for Dil-Ac-LDL/lectin and number of the positive cells counted. Late outgrowth EPCs (after 3 weeks of culture) were identified by metabolic uptake of DiI-acetylated-LDL (Molecular Probes) and positive staining of Alexa 488-labeled isolectin B4 (Molecular Probes). Quantification of the EPC density was performed by confocal microscopy in five microscopic fields at 200× magnification, and average EPC density calculated.
# To examine the possible mechanism of how PDGF-CC stimulates vessel growth and maturation, we next assessed its effects on vascular endothelial progenitor cells (EPCs). […] By scoring after 3 weeks, only late-outgrowth EPCs, but not surviving sloughed-off endothelial cells, are selectively assayed (Lin et al., J Clin Invest, 2000 105:71-7; Rafii, S., J Clin Invest, 2000 105:17-9).
# [3] = test system: human bone marrow-derived AC133+CD34+ cells; experiment: Human bone marrow cell adherence and differentiation assay; format: cell-based; details: 50 ng/ml
# Method: Enriched human BM derived AC133+CD34+ cells (Clonetics) at 10^5/ml were cultured for 3 days in HPGM (Clonetics) in a 6-well plate (Becton Dickinson). Cells were then seeded in collagen coated 12-well plates in EBM (Clonetics) medium containing 4% FCS and VEGF165 (R&D Systems) or PDGF-CC (50 ng/ml each). Growth factors were added every two days and media were refreshed at 75% every four days. For adherence assay, 2.5×10^4 of non-adherent cells/ml were cultured in the same condition on chamber slides coated with collagen, or in 96-well plate coated with 0.3% gelatin in PBS. Cells were then washed three times with PBS, fixed and stained with May-Grünwald Giemsa (Sigma) after two weeks of culture on chamber slides (Becton Dickinson). The number of viable cells was estimated by ATP quantification using cellTiter-glo luminescent cell viability assay (Promega) according to the manufacturer's instructions. For cell surface marker staining, cells (2×10^4/well) cultured on collagen-coated culture slides for two or four weeks were fixed (45 min, 25° C.) and permeabilized (45 min, 25° C.) using a Intrastain Kit (DAKO), and then labeled with CD31-FITC (Becton Dickinson), CD144-FITC (Pharmingen), CD34-FITC (Becton Dickinson) or SMC-Actin CY3 (Sigma). Single or double-labeled cells were analyzed using laser confocal immunofluorescence microscopy.
# Upon stimulation by growth factors or cytokines, bone marrow stem/progenitor cells can differentiate into ECs and SMCs and thereby contribute to angio/arteriogenesis (Orlic et al., Nature, 2001 410:701-5; Kawamoto et al., Circulation, 2001 103:634-7; Asahara et al., Circ Res, 1999 85:221-8). The potential role of PDGF-CC in the differentiation of bone marrow progenitors into vascular cells has, however, not been investigated thus far. We therefore cultured human bone marrow-derived AC133^+CD34^+ cells—a population enriched for stem/progenitor cells (Miraglia et al., Blood, 1997 90:5013-21; Yu et al., J Biol Chem, 2002 277:20711-6; Donnelly et al., Leuk Lymphoma, 2001 40:221-34)—and stimulated them with PDGF-CC, using VEGF as a control (50 ng/ml each).
# [4] = 4.5 μg per day for one week after femoral artery ligation
molecule,measurement,setting,value
"PDGF-CC: recombinant human PDGF-CC core domain homodimer, residues 230-345 of full-length PDGF-C (SEQ ID NO:40), produced in baculovirus infected insect cells (protein, homodimer; PDGF-C core domain) GRKSRVVDLNLLTEEVRLYSCTPRNFSVSIREELKRTDTIFWPGCLLVKRCGGNCACCLHNCNECQCVPSKVTKKYHEVLQLRPKTGVRGLHKSLTDVALEHHEECDCVCRGSTGG","hemorrhage, edema or fibrosis in treated limbs",[1]; 4.5 μg per day for one week,"No signs of hemorrhage, edema or fibrosis"
same,angiogenesis (capillary density),[1]; [4],increased
same,arteriogenesis (density of SMA+ vessels),[1]; [4],enhanced
same,extent of ischemic muscle necrosis,[1]; [4],reduced
same,skeletal muscle regeneration,[1]; [4],enhanced
same,second-generation collateral side branches in the adductor muscle,"[1]; after femoral artery ligation, N=10",920±100 μm^3
same,mobilization of EPCs,[2]; baseline conditions (no ischemia),did not affect
same,augmentation of EPC mobilization,"[2]; femoral artery ligation, day five","persisted to day five, albeit at a lower level"
same,augmentation of EPC mobilization above control group,"[2]; femoral artery ligation, two days, 4.5 μg/day via minipump",approximately 3 fold
same,augmentation of EPC mobilization compared with the vehicle group (FIG. 38 legend),[2]; from day 2 to day 5 after hind limb ischemia,~4 fold
same,SMA positive cells,[3]; four weeks,> 95%
same,expression of CD144 and CD31,[3]; four weeks,lost their expression
same,adherence of AC133+CD34+ cells,[3]; two weeks of stimulation,enhanced
same,expression of EC surface markers CD144 (VE-cadherin) and CD31 (PECAM),[3]; two weeks of stimulation,induced
same,expression of smooth muscle cell marker SMA,[3]; two weeks of stimulation,induced
